Assay [1] deals with T1, human c-Met, membrane-bound on cells (human, UniProt P08581 25-1390).
T1 construct: whole, on cells; A431 cells carry on average 30,000 copies of c-Met per cell (Qifi); also called c-Met expressed on A431 cells; c-Met on A549 cells
Kind of assay: flow cytometry on A431 cells (PE goat anti-human IgG); bottom panel. As for the experimental part: (§1) The binding of anti-c-Met antibodies and monovalent forms thereof (also termed “UniBody molecules” herein, see Example 5) to A431 cells expressing membrane-bound c-Met (purchased at ATCC, CRL-1555) was tested using flow cytometry (FACS Canto II, BD Biosciences). […] Binding of anti-c-Met antibodies and UniBody molecules was detected using a Phycoerythrin-conjugated goat-anti-human IgG antibody (Jackson). IgG1-5D5 was used as positive control antibody, and HuMab-KLH was used as isotype control antibody. EC₅₀ values were determined by means of non-linear regression (sigmoidal dose-response with variable slope) using GraphPad Prism V4.03 software (GraphPad Software, San Diego, Calif., USA).
(§2) Also maximum binding levels were unchanged between IgG1's and UniBody molecules. For antibodies 005, 006, 008, 035, 045 and 058, on the other hand, a more than 2-fold […] as well as a decrease in maximum binding level was observed when comparing IgG1 with their UniBody counterpart. This was most likely due to the […] (Kd) of these antibodies (see Example 14).

The target of assay [2] is T2, rhHGF R/Fc Chimera (R&D Systems; Cat.358MT/CF) (human, UniProt P08581 25-932).
T2 construct: Bought reagent; Fc part of the bought chimera not given; not described
T2 sequence (P08581 25-932, change not shown): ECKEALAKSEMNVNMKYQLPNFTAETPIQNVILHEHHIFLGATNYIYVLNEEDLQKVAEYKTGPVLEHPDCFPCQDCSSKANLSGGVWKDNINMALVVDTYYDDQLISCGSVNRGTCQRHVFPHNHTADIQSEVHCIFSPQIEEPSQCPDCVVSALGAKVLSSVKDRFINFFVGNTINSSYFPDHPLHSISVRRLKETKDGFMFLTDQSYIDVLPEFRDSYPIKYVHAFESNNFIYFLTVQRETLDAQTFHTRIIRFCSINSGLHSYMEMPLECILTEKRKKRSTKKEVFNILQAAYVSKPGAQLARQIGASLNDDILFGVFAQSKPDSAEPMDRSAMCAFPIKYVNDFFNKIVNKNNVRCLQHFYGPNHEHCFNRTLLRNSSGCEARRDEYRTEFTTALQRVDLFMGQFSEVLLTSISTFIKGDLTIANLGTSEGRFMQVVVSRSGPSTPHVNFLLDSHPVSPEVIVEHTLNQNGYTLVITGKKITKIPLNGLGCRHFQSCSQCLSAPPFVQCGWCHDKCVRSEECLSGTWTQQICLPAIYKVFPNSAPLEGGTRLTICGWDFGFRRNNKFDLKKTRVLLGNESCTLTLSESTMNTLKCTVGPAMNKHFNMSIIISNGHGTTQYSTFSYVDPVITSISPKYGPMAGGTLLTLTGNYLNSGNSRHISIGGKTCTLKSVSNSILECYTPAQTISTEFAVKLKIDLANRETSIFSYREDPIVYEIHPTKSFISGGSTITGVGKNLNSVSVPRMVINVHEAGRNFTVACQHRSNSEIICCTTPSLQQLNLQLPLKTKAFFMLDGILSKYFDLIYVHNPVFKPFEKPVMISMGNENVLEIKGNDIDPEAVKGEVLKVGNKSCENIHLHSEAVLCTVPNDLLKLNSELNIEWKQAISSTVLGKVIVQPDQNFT
Nature of the assay: ELISA on coated rhHGF R/Fc Chimera. As for the experimental part: c-Met binding properties of the mutants were tested in an ELISA. ELISA plate wells were coated overnight at 4° C. with rhHGF R/Fc Chimera (R&D Systems; Cat.358MT/CF) in PBS (1 μg/mL). Next, the wells were washed with PBST (PBS supplemented with 0.05% Tween-20 [Sigma-Aldrich, Zwijndrecht, The Netherlands]) and blocked for one hour at room temperature (RT) with PBSTC (PBST supplemented 2% [v/v] chicken serum [Gibco, Paisley, Scotland]). Subsequently, the wells were washed with PBST and incubated for one hour at RT with the anti-cMet antibodies and variants serially diluted in PBSTC (10 μg/mL in 4-fold dilutions). […] After washing, the reaction was visualized by a 15 min incubation with 2,2′-azino-bis(3-ethylbenzothiazoline-6-sulfonic acid) (ABTS: dilute one ABTS tablet in 50 mL ABTS buffer [Roche Diagnostics, Almere, The Netherlands]) at RT protected from light. The colorization was stopped by adding an equal volume of oxalic acid (Sigma-Aldrich, Zwijndrecht, The Netherlands). […] at 405 nm was measured on a microtiter plate reader (Biotek Instruments, Winooski, USA).

Assay [3] addresses T1, human c-Met, membrane-bound on cells. Kind of assay: flow cytometry on A431 cells. As for the experimental part:
as §1, §2

Assay [4] has the same target. Kind of assay: flow cytometry on A431 cells (PE goat anti-human IgG); third panel. As for the experimental part:
as §1, §2

The target is the same in assay [5]. Nature of the assay: flow cytometry on A431 cells (PE goat anti-human IgG); second panel. As for the experimental part: as §1, §2

Results on 15 molecules are retold here after US20150329642A1 (Genmab, published 2015).

T1 sequence (P08581 25-1390): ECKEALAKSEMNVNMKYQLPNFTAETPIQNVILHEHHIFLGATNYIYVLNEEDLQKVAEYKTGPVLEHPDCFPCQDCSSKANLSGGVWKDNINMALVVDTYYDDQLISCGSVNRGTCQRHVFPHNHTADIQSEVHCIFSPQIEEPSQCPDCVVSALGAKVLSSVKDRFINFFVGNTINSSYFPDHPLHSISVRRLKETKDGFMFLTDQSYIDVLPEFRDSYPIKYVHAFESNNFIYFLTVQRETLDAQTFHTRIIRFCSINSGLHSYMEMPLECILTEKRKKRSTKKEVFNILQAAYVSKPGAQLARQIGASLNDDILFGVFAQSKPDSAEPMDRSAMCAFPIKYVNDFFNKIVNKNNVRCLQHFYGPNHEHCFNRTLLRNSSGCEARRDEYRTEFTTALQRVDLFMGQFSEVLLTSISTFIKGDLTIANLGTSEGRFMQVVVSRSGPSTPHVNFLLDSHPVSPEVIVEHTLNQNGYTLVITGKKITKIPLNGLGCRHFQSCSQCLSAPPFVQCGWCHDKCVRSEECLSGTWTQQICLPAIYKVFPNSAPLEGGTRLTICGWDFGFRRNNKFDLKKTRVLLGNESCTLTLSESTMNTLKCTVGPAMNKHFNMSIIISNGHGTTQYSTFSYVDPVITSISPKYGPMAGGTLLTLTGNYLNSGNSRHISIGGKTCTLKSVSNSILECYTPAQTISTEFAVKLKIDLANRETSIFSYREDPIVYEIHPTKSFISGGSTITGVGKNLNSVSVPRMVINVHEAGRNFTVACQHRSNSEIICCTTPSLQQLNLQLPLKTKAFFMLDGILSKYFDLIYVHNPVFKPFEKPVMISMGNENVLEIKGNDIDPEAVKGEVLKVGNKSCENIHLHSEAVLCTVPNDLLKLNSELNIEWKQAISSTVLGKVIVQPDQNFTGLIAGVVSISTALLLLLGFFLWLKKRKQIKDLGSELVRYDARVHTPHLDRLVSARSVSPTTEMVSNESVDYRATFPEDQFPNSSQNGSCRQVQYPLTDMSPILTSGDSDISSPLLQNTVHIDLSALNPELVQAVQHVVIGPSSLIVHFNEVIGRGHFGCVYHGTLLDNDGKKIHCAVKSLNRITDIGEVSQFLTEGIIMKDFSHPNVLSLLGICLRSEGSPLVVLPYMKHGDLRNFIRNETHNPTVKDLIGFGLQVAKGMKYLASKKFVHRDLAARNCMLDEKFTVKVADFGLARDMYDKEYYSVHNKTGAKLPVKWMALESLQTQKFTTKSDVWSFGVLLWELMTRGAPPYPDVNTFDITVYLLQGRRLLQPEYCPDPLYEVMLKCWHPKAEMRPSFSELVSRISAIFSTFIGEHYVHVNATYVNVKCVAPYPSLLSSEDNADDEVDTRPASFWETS

B1: Uni-1016-069-TE (other)
VH: QVQLVQSGAEVKKPGASVKVSCETSGYTFTSYGISWVRQAPGHGLEWMGWISAYNGYTNYAQKLQGRVTMTTDTSTSTAYMELRSLRSDDTAVYYCARDLRGTNYFDYWGQGTLVTVSS
VL: DIQMTQSPSSVSASVGDRVTITCRASQGISNWLAWFQHKPGKAPKLLIYAASSLLSGVPSRFSGSGSGTDFTLTISSLQPEDFATYYCQQANSFPITFGQGTRLEIK
notes: also called UniBody molecule of antibody 069
B1: the values for the EC50 in assay [1] and in assay [2] were 0.6 nM and 0.0301 µg/mL, respectively. The “fold change of EC50, UniBody molecule against IgG1 of the identical clone” value (shortened to “fold change of EC50, UniBody molecule”) in assay [3] is less than 2 fold.

B2: IgG2-1016-069 (antibody, V domains shown)
VH: QVQLVQSGAEVKKPGASVKVSCETSGYTFTSYGISWVRQAPGHGLEWMGWISAYNGYTNYAQKLQGRVTMTTDTSTSTAYMELRSLRSDDTAVYYCARDLRGTNYFDYWGQGTLVTVSS
VL: DIQMTQSPSSVSASVGDRVTITCRASQGISNWLAWFQHKPGKAPKLLIYAASSLLSGVPSRFSGSGSGTDFTLTISSLQPEDFATYYCQQANSFPITFGQGTRLEIK
notes: IgG2 format of clone 069; also called IgG2 backbone variant of 069
Molecule B2 had an EC50 in assay [2] of 0.0296 µg/mL.

B3: IgG1-1016-069-C220S (antibody, V domains shown)
VH: QVQLVQSGAEVKKPGASVKVSCETSGYTFTSYGISWVRQAPGHGLEWMGWISAYNGYTNYAQKLQGRVTMTTDTSTSTAYMELRSLRSDDTAVYYCARDLRGTNYFDYWGQGTLVTVSS
VL: DIQMTQSPSSVSASVGDRVTITCRASQGISNWLAWFQHKPGKAPKLLIYAASSLLSGVPSRFSGSGSGTDFTLTISSLQPEDFATYYCQQANSFPITFGQGTRLEIK
notes: human kappa; also called IgG1 C220S mutant of 069
Molecule B3 had a concentration giving a half-maximal response (EC50) in assay [2] of 0.0156 µg/mL.

B4: IgG1-1016-069 TH7Δ6-9 (antibody, V domains shown)
VH: QVQLVQSGAEVKKPGASVKVSCETSGYTFTSYGISWVRQAPGHGLEWMGWISAYNGYTNYAQKLQGRVTMTTDTSTSTAYMELRSLRSDDTAVYYCARDLRGTNYFDYWGQGTLVTVSS
VL: DIQMTQSPSSVSASVGDRVTITCRASQGISNWLAWFQHKPGKAPKLLIYAASSLLSGVPSRFSGSGSGTDFTLTISSLQPEDFATYYCQQANSFPITFGQGTRLEIK
notes: human kappa; also called IgG1 TH7Δ6-9 mutant of 069
In assay [2], B4 registered a 50% effective concentration (EC50) of 0.0188 µg/mL.

B5: IgG1-1016-069-Hinge IgG2 (antibody, V domains shown)
VH: QVQLVQSGAEVKKPGASVKVSCETSGYTFTSYGISWVRQAPGHGLEWMGWISAYNGYTNYAQKLQGRVTMTTDTSTSTAYMELRSLRSDDTAVYYCARDLRGTNYFDYWGQGTLVTVSS
VL: DIQMTQSPSSVSASVGDRVTITCRASQGISNWLAWFQHKPGKAPKLLIYAASSLLSGVPSRFSGSGSGTDFTLTISSLQPEDFATYYCQQANSFPITFGQGTRLEIK
notes: human kappa; also called IgG1 Hinge-IgG2 variant of 069
In assay [2], B5 came in with an EC50 of 0.023 µg/mL.

B6: IgG1-1016-069-Hinge IgG3 (antibody, V domains shown)
VH: QVQLVQSGAEVKKPGASVKVSCETSGYTFTSYGISWVRQAPGHGLEWMGWISAYNGYTNYAQKLQGRVTMTTDTSTSTAYMELRSLRSDDTAVYYCARDLRGTNYFDYWGQGTLVTVSS
VL: DIQMTQSPSSVSASVGDRVTITCRASQGISNWLAWFQHKPGKAPKLLIYAASSLLSGVPSRFSGSGSGTDFTLTISSLQPEDFATYYCQQANSFPITFGQGTRLEIK
notes: also called IgG1 Hinge-IgG3 variant of 069
With B6, in assay [2], a half-maximal response (EC50) required 0.0142 µg/mL.

B7: Uni-IgG1-1016-069 (antibody, V domains shown)
VH: QVQLVQSGAEVKKPGASVKVSCETSGYTFTSYGISWVRQAPGHGLEWMGWISAYNGYTNYAQKLQGRVTMTTDTSTSTAYMELRSLRSDDTAVYYCARDLRGTNYFDYWGQGTLVTVSS
VL: DIQMTQSPSSVSASVGDRVTITCRASQGISNWLAWFQHKPGKAPKLLIYAASSLLSGVPSRFSGSGSGTDFTLTISSLQPEDFATYYCQQANSFPITFGQGTRLEIK
notes: human kappa; also called Hinge deleted IgG1 (Uni-IgG1) of 069; UniBody-IgG1
For the molecule B7, the EC50 in assay [2] was determined as 0.0154 µg/mL.

B8: IgG1-1016-069-ΔC220 (antibody, V domains shown)
VH: QVQLVQSGAEVKKPGASVKVSCETSGYTFTSYGISWVRQAPGHGLEWMGWISAYNGYTNYAQKLQGRVTMTTDTSTSTAYMELRSLRSDDTAVYYCARDLRGTNYFDYWGQGTLVTVSS
VL: DIQMTQSPSSVSASVGDRVTITCRASQGISNWLAWFQHKPGKAPKLLIYAASSLLSGVPSRFSGSGSGTDFTLTISSLQPEDFATYYCQQANSFPITFGQGTRLEIK
notes: human kappa; also called IgG1 ΔC220 mutant of 069
As for B8, the midpoint of the response in assay [2], the EC50, lay at 0.0189 µg/mL.

B9: UniBody molecule of antibody 181 (other)
VH: QVQLVQSGAEVKKPGASVKVSCKASGYTFTSYGISWVRQAPGQGLEWMGWISTYNGYTNYAQKLQGRVTMTTDTSTSTAYMELRSLRSDDTAVYYCARDLRGTAYFDYWGQGTLVTVSS
VL: DIQMTQSPSSVSASVGDRVTITCRASQGISNWLAWYQHKPGKAPKLLIYAASSLLSGVPSRFSGSGSGTDFTLTISSLQPEDFATYYCQQANSFPITFGQGTRLEIK
For B9, the response in assay [1] was half-maximal at 0.847 nM (EC50). The “fold change of EC50, UniBody molecule” value in assay [3] is less than 2 fold.

B10: Uni-1016-045-TE (other)
VH: EVQLLESGGGLVQPGGSLRLSCAASGFTFSSYAMSWVRQAPGKGLEWVSVISGSGGITYYADSVKGRFTISRDNSKNTLYLQMNSLRAEDTAVYYCARDRGWGSDYWGQGTLVTVSS
VL: EIVLTQSPATLSLSPGERATLSCRASQSVSSYLAWYQQKPGQAPRLLIYDASNRATGIPARFSGSGSGTDFTLTISSLEPEDFAVYYCQQRSNWPFTFGPGTKVDIK
notes: also called UniBody molecule of antibody 045
For the molecule B10, the “fold change of EC50, UniBody molecule” value in assay [3] is more than 2 fold. In assay [4], this molecule gave a half-maximal effective concentration (EC50) of 12.2 nM.

B11: UniBody molecule of antibody 098 (other)
VH: QVQLVQSGAEVKKPGASVKVSCKASGYTFTNFGISWVRQAPGQGLEWMGWISAFNGHTDYSQKVQGRVTMTTDTSTSTAYMELRSLRSDDTAVFYCARSHYYGSGSPFDYWGQGTLVTVSS
VL: DIQMTQSPSSLSASVGDRVTITCRASQGISNWLAWYQQKPEKAPKSLIYAASSLQSGVPSRFSGSGSGTDFTLTISSLQPEDFATYYCHQYKSYPWTFGQGTKVEIK
In assay [1], B11 returned a half-maximal effective concentration (EC50) of 1.16 nM. In assay [3], the “fold change of EC50, UniBody molecule” value was less than 2 fold.

B12: Uni-1016-005 (other)
VH: QVQLVQSGAEVKKPGSSVKVSCKASGGTFSSYGFGWVRQAPGQGLEWMGRISPILGIANYAQMFQGRVTITADKSTSTAYMELSSLRSEDTAVYYCARDVGYDWPDTFDIWGQGTMVIVSS
VL: DIQMTQSPSSLSASVGDRVTITCRASQGISSWLAWYQQKPEKAPKSLIYAASSLQSGVPSRFSGGGSGTDFTLTISSLQPEDFATYYCQQYNSFPPTFGQGTKVEIK
notes: also called UniBody molecule of antibody 005
On to B12, for which the “fold change of EC50, UniBody molecule” value in assay [3] was more than 2 fold. The molecule also displayed a 50% effective concentration (EC50) in assay [5] of 5.8 nM.

B13: UniBody molecule of antibody 008 (other)
VH: EVQLVQSGAEVKKPGESLKISCKGSGYSFTSYWIGWVRQMPGKGLEWMGIIYPGDSETRYSPSFQGQVTISADKSISTAYLQWSSLKASDTAMYYCARQEITGEFDYWGQGTLVTVSS
VL: AIQLTQSPSSLSASVGDRVTITCRASQGISSALAWYQQKPGKAPKLLIYDASSLESGVPSRFSGSGSGTDFTLTISSLQPEDFATYYCQQFNSYPRTFGQGTKVEIK
Regarding B13, the “fold change of EC50, UniBody molecule” value in assay [3] was more than 2 fold. The same molecule returned an EC50 in assay [5] of 1.85 nM.

B14: UniBody molecule of antibody 035 (other)
VH: EVQLVQSGAEVKKPGESLKISCKGSGYSFTSYWIGWVRQMPGKGLEWMGIIYPGDSDTRYSPSFQGQVTISADKSISTAYLQWNSLKASDTAMYYCARQEITGEFDYWGQGTLVTVSS
VL: AIQLTQSPSSLSASVGDRVTITCRASQGISSALAWYQQKPGKAPKLLIYDASSLESGVPSRFSGSGSGTDFTLTISSLQPEDFATYYCQQFNSYPMYTFGQGTKLEIK
For the molecule B14, the “fold change of EC50, UniBody molecule” value in assay [3] is more than 2 fold. This molecule also showed an EC50 in assay [4] of 9.32 nM.

B15: UniBody molecule of antibody 024 (other)
VH: EVQLLESGGGLVQPGGSLRLSCVASGFTFSSYAMSWVRQAPGKGLEWVSAISGSSGGSTYYVDSVKGRFTISRANSKNTLYLQMNSLRAEDTAVYYCAKDLDRGWMGYFGYWGQGTLVTVSS
VL: DIQMTQSPSSVSASVGDRVTITCRASQGISSWLAWYQHKPGKAPKLLIYAASSLQSGVPSRFSGSGSGTDFTLTISSLQPEDFATYYCQQANSFPTFGQGTRLEIK
Turning to B15, in assay [3], the “fold change of EC50, UniBody molecule” value was less than 2 fold. Also, the EC50 in assay [4] stood at 2.42 nM.
